Measured values: the supplement of paper PMC9170038

System: MS2 coat protein
Test: apparent KD of MS2 coat protein; designed switch direction (-1 OFF switch, 1 ON switch): -1; higher = weaker reporter binding
Summary of the method: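 SNAP-549-labelled MS2 coat protein was titrated, doubling from 0.7 or 1.5 nM to 3 µM, over designed RNA switches transcribed on Illumina chips by stalled E. coli RNA polymerase. Runs were done without input, with 200 uM small-molecule ligand, or with an oligonucleotide input. Apparent KD is the per-design median over clusters of curve-fitted normalised fluorescence.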

[1] = input ligand: microRNA oligo, concentration not stated
[2] = Eterna round: R95, input ligand: microRNA oligo, concentration not stated

Sequence | apparent KD of MS2 coat protein (input ligand: FMN 200 uM) | apparent KD of MS2 coat protein (input ligand: none) | apparent KD of MS2 coat protein [1] | apparent KD of MS2 coat protein [2] | apparent KD of MS2 coat protein (Eterna round: R95, input ligand: FMN 200 uM) | apparent KD of MS2 coat protein (Eterna round: R95, input ligand: none)
GUUCAACAUGAGGAUCACCCAUGUCAGGAUAUGCGAAUUUCAUCAAAAGAUGAAAUUUGCAGAAGGGACUGAAC [Omei Ex1 A30] (Eterna round: R97, puzzle: Exclusion 1) | 30.5 nM | 27.2 nM |  |  |  | 
GUUCUGACAGGAUAUACAUGAGGAUCACCCAUGUGCCCUUAGAGAUGCAAAGCAUCUCGUAGAAGGGUCUGAAC [Omei Ex3 Model Bachelor's Dilema v28] (Eterna round: R97, puzzle: Exclusion 3) | 38.5 nM | 31.6 nM |  |  |  | 
GUUGUACAUGAGGAUCACCCAUGUCAGGAUAUCCACCUCAGAAAGUAUACAGGAUUGUGGAGAAGGGACAUUAA [EX1 C.18] (Eterna round: R97, puzzle: Exclusion 1) | 56 nM | 48.5 nM |  |  |  | 
GUUGUUACUGAGGAUAUUAUUUUAUUCGAUUGAUAAGAAGGCAGUACAUGAGGAUCACCCAUGUGGGUAGUUAG [Polaris21] (Eterna round: R97, puzzle: Exclusion 6) | 270 nM | 338 nM |  |  |  | 
GUUGUUUAUGUAGGAUAUGCCAGGCGAGCCUAAGCAGAAGGACAUGAGGAUCACCCAUGUAUUGCGGUCUGCGUUCAGAUCGCU [salish99_ExNG1_r4_017] (Eterna round: R96, puzzle: Exclusion NG 1) | 63.5 nM | 23.7 nM | 18.3 nM |  |  | 
GUUGUUUAUGUAGGAUAUGCCUGGCGUGCCUUUGCAGAAGGACAUGAGGAUCACCCAUGUAACAUGAGGCUCACCCAUGUCGCU [salish99_ExNG1_r04_108] (Eterna round: R96, puzzle: Exclusion NG 1) | 397 nM | 296 nM | 159 nM |  |  | 
GUUUAAUUAGGAUAUGCAAGCGGUGUUAGAAAAGUAUCCAAACAUGAGGAUCACCCAUGUAGAAGGAGUUGUUG [Eternabot (L2) Solution 59] (Eterna round: R97, puzzle: Exclusion 2) | 28.5 nM | 30.2 nM |  |  |  | 
GUUUACAAGCUAAGAUCCUACAUGAGGAUCACCCAUGUGGUCCGGUGACGUGAGUCACCGGACUUAGCUCGUCUUGG [salish99_S_TOV1_R5_090] (Eterna round: R97, puzzle: Sensor, turn-off variant 1) | 66 nM | 66.7 nM |  |  |  | 
GUUUAGUGAGGAUAUGUGGCUUCGAUCGUGCGCGGUCUGCUACAGAAGGCACAUGAGGAUCACCCAUGUUCCUC [salish99_ex4_r4_308] (Eterna round: R97, puzzle: Exclusion 4) | 579 nM | 123 nM |  |  |  | 
GUUUCACAUGAGGAUCACCCAUGUGAGGAUAUGGACUUUUUAGUAAUAAUUGUUGGGUUCAGAAGGCGCGUGAU [JR_Exc1_Sub005] (Eterna round: R97, puzzle: Exclusion 1) | 53.1 nM | 44.7 nM |  |  |  | 
GUUUCGUGAGGAUAUGUGGCUUCGAUCGUGCGAAGAAGGCUACAGAAGGCACAUGAGGAUCACCCAUGUUCGUC [salish99_ex4_r4_227] (Eterna round: R97, puzzle: Exclusion 4) | 152 nM | 42.1 nM |  |  |  | 
GUUUGACAUGAGGAUCACCCAUGUGAGGAUAUCGGCUGGUACGUGUUGGCUGGCAUCUCGAGAAGGCACAUAGG [Exclusion 1 V58] (puzzle: Exclusion 1) |  |  |  | 109 nM |  | 
GUUUGACAUGAGGAUCACCCAUGUGAGGAUAUCGUCUGGUACGUGUUGGCUGGCAUCUCGAGAAGGCGCAUAGG [Exclusion 1 V57] (puzzle: Exclusion 1) |  |  |  | 49.7 nM | 75.9 nM | 64.9 nM
GUUUGAUUAGGAUAUACAUGAGGAUCACCCAUGUGUCCCAGUUUAGAAAUAGACAAAAGUAGAAGGGAUUAGAU [Starry 2] (Eterna round: R97, puzzle: Exclusion 3) | 37.8 nM | 45.8 nM |  |  |  | 
